US20210196842A1, “SITE-SPECIFIC RADIOFLUORINATION OF PEPTIDES WITH 8-[18F]-FLUOROOCTANOIC ACID CATALYZED BY LIPOIC ACID LIGASE” (THE REGENTS OF THE UNIVERSITY OF CALIFORNIA, priority 2015, published 2021)

Columns and labels:
[1] = target: T1, LAP peptide (Ac-GFEIDKVWYDLDA-OH)
T1 chain: GFEIDKVWYDLDA

[2] = target: T2, scrambled LAP peptide (Ac-EFDDWKYADVGLI)
T2 chain: EFDDWKYADVGLI

[3] = target: human urokinase plasminogen activator receptor (uPAR), biotinylated (human) (UniProt Q03405); assay: BLI (Octet RED384), biotinylated human uPAR on streptavidin biosensors, Fab in solution, 1:1 model
[4] = target: T3, human urokinase plasminogen activator receptor (uPAR), biotinylated (human, UniProt Q03405 23-303); assay: as above
T3 construct: also called human uPAR; biotinylated human uPAR

[5] = target: human uPAR (Homo sapiens, UniProt Q03405); assay: Binding of 2G10 Fabs to uPAR measured using Octet instrument
Procedure: Measurement of 2G10-Fab-FA-LAP Affinity for uPAR: Stocks solutions were diluted to the following concentrations in 100 μL PBS: 2G10-Fab-LAP (10 μM), Lp1AΔHis (50 μM), FA (750 μM), ATP (3 mM), Mg(OAc)2 (5 mM). The resulting solution was incubated at 30° C. for 15 h and then quenched with 100 μL. 360 mM EDTA. Kinetic constants this sample, along with 2G10 and 2G10-Fab-LAP, were determined using an Octet RED384 instrument (ForteBio). Four concentrations of each Fab (500 nM, 250 nM, 100 nM and 50 nM) were tested for binding to the biotinylated antigen (human uPAR) immobilized on ForteBio streptavidin SA biosensors. All measurements were performed at room temperature in 384-well microplates and the running buffer was PBS with 0.1% (w/v) bovine serum albumin (BSA) and 0.02% (v/v) Tween 20. Biotinylated human uPAR was loaded for 180 s from a solution of 150 nM, baseline was equilibrated for 60 s, and then the Fabs were associated for 120 s followed by 300 s disassociation. Between each Fab sample, the biosensor surfaces were regenerated three times by exposing them to 10 mM glycine, pH 1.5 for 5 s followed by PBS for 5 s. Data were analyzed using a 1:1 interaction model on the ForteBio data analysis software 8.2.

Chain of human uPAR (Q03405 23-305): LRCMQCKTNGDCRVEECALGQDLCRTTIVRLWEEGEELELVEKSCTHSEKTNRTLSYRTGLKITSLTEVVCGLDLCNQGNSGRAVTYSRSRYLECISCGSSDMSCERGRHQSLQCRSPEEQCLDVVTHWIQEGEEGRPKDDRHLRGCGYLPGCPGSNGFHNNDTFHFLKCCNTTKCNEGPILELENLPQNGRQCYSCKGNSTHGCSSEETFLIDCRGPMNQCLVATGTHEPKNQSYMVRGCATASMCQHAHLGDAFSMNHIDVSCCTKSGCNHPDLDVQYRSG
Chain of human urokinase plasminogen activator receptor (uPAR), biotinylated (human) (Q03405 23-303 limits assumed): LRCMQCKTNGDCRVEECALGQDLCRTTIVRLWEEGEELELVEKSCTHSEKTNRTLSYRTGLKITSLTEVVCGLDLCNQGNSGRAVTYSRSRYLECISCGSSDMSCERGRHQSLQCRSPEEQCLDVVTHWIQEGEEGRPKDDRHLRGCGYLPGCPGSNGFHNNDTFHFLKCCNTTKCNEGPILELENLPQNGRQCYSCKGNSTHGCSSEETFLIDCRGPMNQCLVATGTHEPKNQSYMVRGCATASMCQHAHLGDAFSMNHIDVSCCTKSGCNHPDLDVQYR

B1: LplA-His6 (E. coli lipoic acid ligase) (protein)
chain: MSTLRLLISDSYDPWFNLAVEECIFRQMPATQRVLFLWRNADTVVIGRAQNPWKECNTRRMEEDNVRLARRSSGGGAVFHDLGNTCFTFMAGKPEYDKTISTSIVLNALNALGVSAEASGRNDLVVKTTEGDRKVSGSAYRETKDRGFHHGTLLLNADLSRLANYLNPDKKKLAAKGITSVRSRVTNLTELLPEITHEQVCEAIREAFFAHYGERVEAEIISPDKTPDLPNFAETFARQSSWEWNFGQAPAFSHLLDERFTWGGVELHFDVEKGHITRAQVFTDSLNPAPLEALAGRLQGCLYRADMLQQECEALLVDFPEQEKELRELSTWIAGAVR
For B1, the Yield/% (radio-TLC conjugation yield of [18F]-FA) [1] was 91%, the “conversion of LAP to [19F]-FA-LAP, RP-HPLC” value [1] was “complete at 30 minutes” and the Yield/% (radio-TLC conjugation yield of [18F]-FA) [2] was 0%. The “conjugation of FA to peptide, RP-HPLC” value [2] was “No productive reaction was observed after 60 minutes”.

B2: 2G10-Fab-LAP (Fab, V domains shown)
VH: QVQLQQSGPGLVKPSQTLSLTCAISGDSVSSNSAAWNWIRQSPSRGLEWLGRTYYRSKWYNDYAVSVKSRIIINPDTSKNQFSLQLNSVTPEDTAVYYCARDPGGPLDDSFDIWGQGTMVTVSS
VL: DVVMTQSPLSLPVTPGEPASISCRSSQSLLRSNGYNYLDWYLQKPGQSPQLLIYLGSIRASGVPDRFSGSGSGTDFTLRISRVEAEDVGVYYCMQALQTPFTFGQGTKLEIKR
B2 was tested, and the Kd [3] was 31 nM.

B3: 2G10-Fab (Fab, V domains shown)
VH: QVQLQQSGPGLVKPSQTLSLTCAISGDSVSSNSAAWNWIRQSPSRGLEWLGRTYYRSKWYNDYAVSVKSRIIINPDTSKNQFSLQLNSVTPEDTAVYYCARDPGGPLDDSFDIWGQGTMVTVSS
VL: DVVMTQSPLSLPVTPGEPASISCRSSQSLLRSNGYNYLDWYLQKPGQSPQLLIYLGSIRASGVPDRFSGSGSGTDFTLRISRVEAEDVGVYYCMQALQTPFTFGQGTKLEIKR
B3 showed a Kd [4] of 38 nM.

B4: 2G10-Fab-LAP: 2G10 Fab with the LAP peptide sequence inserted at the C-terminus of the heavy chain (antibody)
heavy: QVQLQQSGPGLVKPSQTLSLTCAISGDSVSSNSAAWNWIRQSPSRGLEWLGRTYYRSKWYNDYAVSVKSRIIINPDTSKNQFSLQLNSVTPEDTAVYYCARDPGGPLDDSFDIWGQGTMVTVSSASTKGPSVFPLAPSSKSTSGGTAALGCLVKDYFPEPVTVSWNSGALTSGVHTFPAVLQSSGLYSLSSVVTVPSSSLGTQTYICNVNHKPSNTKVDKKVEPKSCAAHHHHHHAAGFEIDKVWYDLDA
light: DVVMTQSPLSLPVTPGEPASISCRSSQSLLRSNGYNYLDWYLQKPGQSPQLLIYLGSIRASGVPDRFSGSGSGTDFTLRISRVEAEDVGVYYCMQALQTPFTFGQGTKLEIKRTVAAPSVFIFPPSDEQLKSGTASVVCLLNNFYPREAKVQWKVDNALQSGNSQESVTEQDSKDSTYSLSSTLTLSKADYEKHKVYACEVTHQGLSSPVTKSFNRGEC
With B4 the Kd ([5]; Octet RED384, biotinylated human uPAR on streptavidin biosensors, room temperature, 1:1 interaction model, read-out: KD (nM), dissociation constants for 2G10-Fabs with uPAR) was 31 ± 2.2 nM and the “differences in binding affinity for uPAR between the Fabs” value ([5]; Octet, after bioconjugation with excess [19F]-FA) was “No significant differences in binding affinity”.
